Assay results reported in patent US20230038638A1, “COMPLEMENT FACTOR I-RELATED COMPOSITIONS AND METHODS” (published 2023).

Tests used:
human C4b (human) [1] = molecular target: T1, human C4b (human) (UniProt P0C0L4)
T1 sequence: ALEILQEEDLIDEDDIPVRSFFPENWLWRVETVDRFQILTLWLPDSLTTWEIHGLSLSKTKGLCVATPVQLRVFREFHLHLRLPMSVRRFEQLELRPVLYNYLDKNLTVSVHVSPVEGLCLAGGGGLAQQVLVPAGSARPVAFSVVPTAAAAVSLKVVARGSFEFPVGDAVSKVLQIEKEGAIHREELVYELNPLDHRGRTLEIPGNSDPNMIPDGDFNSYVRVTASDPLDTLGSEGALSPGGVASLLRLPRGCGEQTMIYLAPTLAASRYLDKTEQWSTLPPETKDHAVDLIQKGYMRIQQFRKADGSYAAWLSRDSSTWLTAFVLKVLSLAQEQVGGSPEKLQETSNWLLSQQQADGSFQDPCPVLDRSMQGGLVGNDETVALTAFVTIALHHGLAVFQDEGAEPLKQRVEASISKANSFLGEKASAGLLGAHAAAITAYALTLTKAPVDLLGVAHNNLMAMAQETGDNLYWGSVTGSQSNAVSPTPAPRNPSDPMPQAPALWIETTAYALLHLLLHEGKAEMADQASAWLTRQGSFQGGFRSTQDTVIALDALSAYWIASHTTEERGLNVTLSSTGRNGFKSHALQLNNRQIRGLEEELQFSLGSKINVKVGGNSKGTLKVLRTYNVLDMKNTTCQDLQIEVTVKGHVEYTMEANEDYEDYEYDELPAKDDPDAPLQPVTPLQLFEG

[2] = molecular target: soluble human C3b (human) (UniProt P01024)
human C4b (human) [3] = molecular target: T1, human C4b (human); remark: listed apart in the source
[4] = molecular target: soluble human C3b (human) (UniProt P01024); remark: listed apart in the source

Substance | C4c EC50 (nM) (human C4b (human) [1]) | iC3b EC50 [2] [nM] | C4b Screen Ref Fold (fold of reference) (human C4b (human) [3]) | iC3b Screen Ref Fold (fold of reference) [4] | C4c EC50 (human C4b (human) [1]) [nM] | C4b Screen Ref Fold (fold of CFI-HSA wild type) (human C4b (human) [3]) | iC3b Screen Ref Fold (fold of CFI-HSA wild type) [4]
CFI-HSA variant E457N (enzyme) | 215 | 16.3 | 4.31 | 0.9 | – | – | –
CFI-HSA variant G406I (enzyme) | – | 54.4 | 0.97 | 0.4 | > 1000 | – | –
CFI-HSA variant E461I (enzyme) | 100 | 9.8 | 3.83 | 1.44 | – | – | –
CFI-HSA variant E416A; N422K; E457G; E461Q; Q467K; N531G (enzyme) | 4.4 | 1.7 | – | – | – | 3.84 | 3.05
CFI-HSA variant Y408F; E457G; E461Q; R462K; E530Y; N531G; P558S (enzyme) | 20.4 | 5.1 | – | – | – | 4.41 | 2.21
CFI-HSA variant E392G (enzyme) | 143 | 9.6 | – | – | – | 1.3 | 1.66
CFI-HSA variant N422G (enzyme) | 238 | 25.5 | – | – | – | 0.88 | 1.34
CFI-HSA variant K504I (enzyme) | > 1000 | 176 | 0.05 | 0.1 | – | – | –
CFI-HSA variant E457Y (enzyme) | > 1000 | 90.6 | 0.12 | 0.03 | – | – | –
CFI-HSA variant N460G (enzyme) | 156 | 17.5 | – | – | – | 1.69 | 1.61
CFI-HSA variant G406T (enzyme) | – | 52.4 | 1.09 | 0.52 | > 1000 | – | –
CFI-HSA variant K504R; E530F; D425K; P558S; E457G; E461Q; N531G (enzyme) | 6.9 | 2.4 | – | – | – | 3.92 | 1.98
CFI-HSA variant G406D (enzyme) | > 1000 | 151 | 0.33 | 0.12 | – | – | –
CFI-HSA variant A405S (enzyme) | 353 | 23.9 | 2.12 | 0.94 | – | – | –
CFI-HSA variant Y403F (enzyme) | 338 | 47.8 | 3.55 | 0.41 | – | – | –
CFI-HSA variant G406P (enzyme) | – | 35.9 | 0.49 | 0.47 | > 1000 | – | –
CFI-HSA variant N422K; E457G; E461Q; Q467K; N531G (enzyme) | 5 | 2.5 | – | – | – | 3.85 | 2.84
CFI-HSA variant G406Q (enzyme) | – | 30.7 | 0.91 | 0.68 | > 1000 | – | –
CFI-HSA variant N531K (enzyme) | 223 | 13 | 3.03 | -0.01 | – | – | –
CFI-HSA variant P558G; E457G; E461Q; N531G (enzyme) | 7.1 | 5 | – | – | – | 3.97 | 1.87
CFI-HSA variant G406A (enzyme) | 176 | 42.6 | 1.96 | 0.36 | – | – | –
CFI-HSA variant K504R; D425R; E457G; E461Q; N531G (enzyme) | 8.4 | 4.2 | – | – | – | 4.19 | 1.59
CFI-HSA variant E530R (enzyme) | – | 14.7 | 0.76 | 0.8 | > 1000 | – | –
